Data as given in paper PMC6532931, “Structures suggest a mechanism for energy coupling by a family of organic anion transporters” (PLoS Biology, 2019).

Substrate: O=C(O)[C@H](O)[C@@H](O)[C@@H](O)[C@H](O)CO
Test: cells, lysate or membranes
Format: cell-based, Escherichia coli
Conditions: pH 6.5, 150 mM KCl, 25 °C, 30 s uptake, labelled compound, H+ symport

B1: DgoT (Escherichia coli) (protein)
chain: MVSGFAMPKIWRKLAMDIPVNAAKPGRRRYLTLVMIFITVVICYVDRANLAVASAHIQEEFGITKAEMGYVFSAFAWLYTLCQIPGGWFLDRVGSRVTYFIAIFGWSVATLFQGFATGLMSLIGLRAITGIFEAPAFPTNNRMVTSWFPEHERASAVGFYTSGQFVGLAFLTPLLIWIQEMLSWHWVFIVTGGIGIIWSLIWFKVYQPPRLTKGISKAELDYIRDGGGLVDGDAPVKKEARQPLTAKDWKLVFHRKLIGVYLGQFAVASTLWFFLTWFPNYLTQEKGITALKAGFMTTVPFLAAFVGVLLSGWVADLLVRKGFSLGFARKTPIICGLLISTCIMGANYTNDPMMIMCLMALAFFGNGFASITWSLVSSLAPMRLIGLTGGVFNFAGGLGGITVPLVVGYLAQGYGFAPALVYISAVALIGALSYILLVGDVKRVG
notes: full-length in pQE60, C-terminal thrombin site and decahistidine tag (kept in uptake assays, cut for crystallization); expressed in E. coli dgoT knock-out (Keio, lambda-DE3) for uptake, E. coli C41 for purification
Km: 18 ± 4 µM
